In this assay the target is T1, IFNAR1/IFNAR2 receptor (human (endogenous in HEK293)) (UniProt P17181).
T1 sequence 1: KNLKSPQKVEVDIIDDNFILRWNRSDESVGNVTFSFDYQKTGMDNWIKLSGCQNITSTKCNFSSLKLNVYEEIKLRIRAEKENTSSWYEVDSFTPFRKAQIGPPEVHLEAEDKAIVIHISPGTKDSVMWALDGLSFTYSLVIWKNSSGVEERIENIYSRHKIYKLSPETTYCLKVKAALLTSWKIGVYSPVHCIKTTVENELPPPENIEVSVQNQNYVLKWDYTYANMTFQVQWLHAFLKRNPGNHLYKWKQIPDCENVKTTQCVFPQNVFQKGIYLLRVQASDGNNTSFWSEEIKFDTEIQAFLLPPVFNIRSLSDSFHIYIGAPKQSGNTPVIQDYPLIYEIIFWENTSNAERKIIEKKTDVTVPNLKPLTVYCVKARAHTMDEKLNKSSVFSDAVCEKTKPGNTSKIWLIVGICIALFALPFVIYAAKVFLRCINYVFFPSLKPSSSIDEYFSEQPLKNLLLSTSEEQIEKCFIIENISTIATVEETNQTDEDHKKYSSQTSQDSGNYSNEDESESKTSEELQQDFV
T1 sequence 2: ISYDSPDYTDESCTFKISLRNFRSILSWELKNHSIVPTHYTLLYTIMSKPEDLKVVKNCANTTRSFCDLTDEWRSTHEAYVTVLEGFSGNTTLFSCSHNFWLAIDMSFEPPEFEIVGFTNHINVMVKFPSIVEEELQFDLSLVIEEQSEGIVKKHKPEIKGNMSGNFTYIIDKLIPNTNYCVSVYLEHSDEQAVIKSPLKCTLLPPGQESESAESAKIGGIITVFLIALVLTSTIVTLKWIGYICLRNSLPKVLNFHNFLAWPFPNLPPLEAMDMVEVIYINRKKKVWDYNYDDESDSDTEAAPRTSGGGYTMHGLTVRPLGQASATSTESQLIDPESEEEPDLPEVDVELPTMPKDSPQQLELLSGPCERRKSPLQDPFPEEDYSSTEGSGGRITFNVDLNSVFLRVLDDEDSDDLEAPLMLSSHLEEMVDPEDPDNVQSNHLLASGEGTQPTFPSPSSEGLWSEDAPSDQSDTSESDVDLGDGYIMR

B1: IFNα-10 (ligand)
chain: CDLPQTHSLGNRRALILLGQMGRISPFSCLKDRHDFRIPQEEFDGNQFQKAQAISVLHEMIQQTFNLFSTEDSSAAWEQSLLEKFSTELYQQLNDLEACVIQEVGVEETPLMNEDSILAVRKYFQRITLYLIERKYSPCAWEVVRAEIMRSLSFSTNLQKRLRRKD
The molecule B1 registered an EC50 of ISG54-driven secreted embryonic alkaline phosphatase in the HEK293 (HEK-BLUE IFN-αβ) reporter cell line, dose response, 24 h of 0.3 nM.

B2: IFNα-7 (ligand)
chain: CDLPQTHSLRNRRALILLAQMGRISPFSCLKDRHEFRFPEEEFDGHQFQKTQAISVLHEMIQQTFNLFSTEDSSAAWEQSLLEKFSTELYQQLNDLEACVIQEVGVEETPLMNEDFILAVRKYFQRITLYLMEKKYSPCAWEVVRAEIMRSFSFSTNLKKGLRRKD
On to B2, for which the EC50 of ISG54-driven secreted embryonic alkaline phosphatase in the HEK293 (HEK-BLUE IFN-αβ) reporter cell line, dose response, 24 h was determined as 3.3 nM.
